Publication PMC10350915, “Development of a New Class of CXCR4-Targeting Radioligands Based on the Endogenous Antagonist EPI-X4 for Oncological Applications” (Journal of Medicinal Chemistry, 2023)
Read-outs that look alike come from different tables or passages of the source. Square brackets hold non-standard residues; d marks the D form. Side chains are listed from the residue outwards. Ends that are not written are not given here. Peptide text beside a SMILES is read from it. * marks the point of attachment. DOTA = O=C(O)CN1CCN(CC(=O)O)CCN(CC(=O)*)CCN(CC(=O)O)CC1; Palmitoyl = CCCCCCCCCCCCCCCC(=O)*

T1: C-X-C motif chemokine receptor 4 (CXCR4) on Jurkat cells (human (endogenous in Jurkat), UniProt P61073 1-352)
T1 chain: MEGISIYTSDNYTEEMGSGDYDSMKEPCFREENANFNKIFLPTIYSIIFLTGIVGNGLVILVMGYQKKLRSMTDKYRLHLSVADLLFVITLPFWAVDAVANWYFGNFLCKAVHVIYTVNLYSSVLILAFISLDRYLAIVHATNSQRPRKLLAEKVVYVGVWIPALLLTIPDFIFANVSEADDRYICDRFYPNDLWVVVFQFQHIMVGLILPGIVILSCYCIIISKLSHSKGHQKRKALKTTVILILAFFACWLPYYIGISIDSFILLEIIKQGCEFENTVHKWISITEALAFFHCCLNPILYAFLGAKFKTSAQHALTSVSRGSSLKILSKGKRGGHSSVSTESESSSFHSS


How the values were obtained:
[1] = assay type: in vitro ADME, human
Protocol: Representative radiochromatograms are provided in Figure S25 for ^177Lu-1, ^177Lu-2, and ^177Lu-7. This included ^177Lu-9 despite its fatty acid chain.
(§1) Figure 3 Stability of the ^177Lu ligands in human plasma at 37 °C, expressed as % of intact radioligand over time, assessed by radio-HPLC. The % of plasma protein binding (PPB) after 60 min incubation is provided in parenthesis and it is expressed as the % of radioligand in the protein fraction (pellet) versus the total activity in the plasma. TEXT PRINTED IN THE PICTURE: ^177Lu-1: PPB: 35% | ^177Lu-2: PPB: 22% | ^177Lu-5: PPB: 42% | ^177Lu-6: PPB: 38% | ^177Lu-7: PPB: 39% | ^177Lu-9: PPB: 37%
To 1 mL of fresh human plasma, previously equilibrated at 37 °C, 500 pmol (8–10 MBq) of each ^177Lu-labeled ligand was added. The mixture was incubated at 37 °C for different time points (0, 15, 30, 60, and 120 min). At each time point, a 100 μL aliquot was removed and treated with 1.5 excess (v/v) of acetonitrile, to precipitate plasma proteins, followed by centrifugation for 5 min at 3500 rpm. The supernatant was collected and the process of protein precipitation was repeated. Afterward, 100 μL from the supernatant was taken, diluted with water at a ratio of 1:10 (v/v), and injected into radio-HPLC. The radioligand (in)stability was assessed by quantifying the percentage of intact radioligand over time.

[2] = assay type: in vitro ADME; conditions: human; for fraction unbound at 60 min: plasma, plasma protein binding (PPB); for plasma protein binding (PPB): 60 min
Protocol: as §1
For the determination of plasma protein binding (PPB), 100 μL from the plasma incubated with the ^177Lu ligand was removed and measured in a γ-counter (total radioactivity). Protein precipitation and separation followed, as described above. The supernatant and the protein pellet were then measured in a γ-counter. The percentage of plasma protein binding was calculated as the ratio between the protein-bound radioactivity and the total radioactivity in the plasma.

[3] = target: T2, C-X-C motif chemokine receptor 4 (CXCR4) on Jurkat cells (human (endogenous in Jurkat), UniProt P61073 1-352); assay: flow cytometry on cells; competition with APC-labelled anti-CXCR4 antibody clone 12G5 at a fixed concentration close to its KD; Jurkat cells, 50,000 cells/well; ligands serially diluted in PBS; 4 °C, 2 h; PBS with 1% FBS; conditions: one partner purified
T2 construct: CXCR4 naturally expressed at high levels on Jurkat cells (human T lymphoblasts); source: endogenous, on Jurkat cells (clone E6-1, ATCC)

[4] = target: T3, C-X-C motif chemokine receptor 4 (CXCR4) on Ghost-CXCR4 cells (UniProt P61073 1-352); assay: flow cytometry on cells; competition with APC-labelled anti-CXCR4 antibody clone 12G5 at a fixed concentration close to its KD; Ghost-CXCR4 cells, 50,000 cells/well; ligands serially diluted in PBS; 4 °C, 2 h; PBS with 1% FBS; conditions: one partner purified
T3 construct: CXCR4 stably expressed in Ghost cells (NIH HIV Reagent Program); source: Ghost cells (human osteosarcoma cell line) stably transfected with CXCR4, also expressing CD4; on cells

[5] = target: T1, C-X-C motif chemokine receptor 4 …
[6] = target: T3, C-X-C motif chemokine receptor 4 …; assay: radioligand binding; cellular uptake (surface-bound and internalised) of 177Lu ligands (1 nM) in Ghost-CXCR4 cells, 37 °C, 15-60 min, DMEM with 5% BSA; nonspecific uptake with 100,000-fold excess of AMD3100 subtracted; conditions: one partner purified

Row | Molecule | time to complete degradation in human plasma [1] | fraction unbound at 60 min [2] | plasma protein binding (PPB) [2] | IC50 [3] | IC50 [4] | IC50 [5] | cellular uptake (% of applied activity) [6]
1 | CC[C@H](C)[C@H](N)C(=O)N[C@@H](CC(C)C)C(=O)N[C@@H](CCCNC(=N)N)C(=O)N[C@@H](Cc1c[nH]c2ccccc12)C(=O)N[C@@H](CO)C(=O)N[C@@H](CCCNC(=N)N)C(=O)N[C@@H](CCCCN)C(=O)N[C@@H](CC(C)C)C(=O)N1CCC[C@H]1C(=O)N[C@@H](CS)C(=O)N[C@H](C(=O)N[C@@H](CO)C(=O)N[C@@H](CCCCNC(=O)CN1CCN(CC(=O)O)CCN(CC(=O)O)CCN(CC(=O)O)CC1)C(=O)O)C(C)C [^177Lu-1, metal not drawn] | ≤ 15 min | 0.65 |  |  |  |  | 
2 | CC[C@H](C)[C@H](N)C(=O)N[C@@H](CC(C)C)C(=O)N[C@@H](CCCNC(=N)N)C(=O)N[C@@H](Cc1c[nH]c2ccccc12)C(=O)N[C@@H](CO)C(=O)N[C@@H](CCCNC(=N)N)C(=O)N[C@@H](CCCCNC(=O)CN1CCN(CC(=O)O)CCN(CC(=O)O)CCN(CC(=O)O)CC1)C(N)=O [^177Lu-5, metal not drawn] (H-ILRWSRK(DOTA)-NH2; N-terminus assumed) | ≤ 15 min | 0.58 | ~40% |  |  |  | 
3 | CC(C)C[C@@H](N)C(=O)N[C@@H](CC(C)C)C(=O)N[C@@H](CCCNC(=N)N)C(=O)N[C@@H](Cc1c[nH]c2ccccc12)C(=O)N[C@@H](CO)C(=O)N[C@@H](CCCNC(=N)N)C(=O)N[C@@H](CCCCN)C(=O)N[C@@H](CC(C)C)C(=O)N1CCC[C@H]1C(=O)N[C@@H](CS)C(=O)N[C@H](C(=O)N[C@@H](CO)C(=O)N[C@@H](CCCCNC(=O)CN1CCN(CC(=O)O)CCN(CC(=O)O)CCN(CC(=O)O)CC1)C(=O)O)C(C)C [^177Lu-6, metal not drawn] | ≤ 15 min | 0.62 | ~40% |  |  |  | 
4 | [dI]LRWSRKK(DOTA)-NH2 (N-terminus assumed; SMILES CC[C@@H](C)[C@@H](N)C(=O)N[C@@H](CC(C)C)C(=O)N[C@@H](CCCNC(=N)N)C(=O)N[C@@H](Cc1c[nH]c2ccccc12)C(=O)N[C@@H](CO)C(=O)N[C@@H](CCCNC(=N)N)C(=O)N[C@@H](CCCCN)C(=O)N[C@@H](CCCCNC(=O)CN1CCN(CC(=O)O)CCN(CC(=O)O)CCN(CC(=O)O)CC1)C(N)=O, as ligand-4 with isoleucine 1 substituted by D-isoleucine; also called DOTA conjugate of JM#173; source: synthetic peptide (Fmoc solid phase synthesis, RP-HPLC purified)) [ligand-7] |  |  |  | 433 nM | 570 nM |  | 
5 | IVRWSKK(Palmitoyl)VPCSK(DOTA) (also: natLu complexed by DOTA) [^natLu-8] |  |  |  | 18 nM | 30 nM |  | 
6 | LVRYTKKVPQVSTPTL (16-mer fragment of human serum albumin; also called wild-type EPI-X4; source: synthetic peptide) [EPI-X4 (endogenous peptide inhibitor of CXCR4)] |  |  |  | 1780 nM | 4540 nM |  | 
7 | ILRWSRKK(DOTA)-NH2 (truncated JM#21 derivative with added C-terminal K(DOTA)-NH2; source: synthetic peptide (Fmoc solid phase synthesis, RP-HPLC purified)) [ligand-4] |  |  |  | 161 nM | 295 nM |  | 
8 | [dL]LRWSRK([Glu-Palmitoyl])K(DOTA)-NH2 (main chain of 8 residues; source: synthetic peptide (Fmoc solid phase synthesis, RP-HPLC purified)) [ligand-9] |  |  |  | 13 nM | 6 nM |  | 
9 | [dL]LRWSRK([Glu-Palmitoyl])K(DOTA)-NH2 (also: natLu complexed by DOTA, natLu and 177Lu complexes are written as one molecule; they differ only in the isotope; also called ^177Lu-9; Lu complex of ligand-9; source: synthetic peptide, complexed with natLuCl3; ^177Lu form labelled with 177LuCl3) [^natLu-9] |  |  |  | 4 nM | 6 nM | 20 nM | 
10 | ILRWSRK(DOTA)-NH2 (also: natLu complexed by DOTA, natLu and 177Lu complexes are written as one molecule; they differ only in the isotope; also called ^177Lu-5; Lu complex of ligand-5; source: synthetic peptide, complexed with natLuCl3; ^177Lu form labelled with 177LuCl3) [^natLu-5] |  |  |  | 113 nM | 197 nM | 104 nM | ~1 % of applied activity
11 | [dI]LRWSRKK(DOTA)-NH2 (also: natLu complexed by DOTA, natLu and 177Lu complexes are written as one molecule; they differ only in the isotope; also called ^177Lu-7; Lu complex of ligand-7; source: synthetic peptide, complexed with natLuCl3; ^177Lu form labelled with 177LuCl3) [^natLu-7] |  |  |  | 435 nM | 481 nM | 272 nM | 
12 | ILRWSRKLPCVSK(DOTA) (source: synthetic peptide (Fmoc solid phase synthesis, RP-HPLC purified)) [ligand-1] |  |  |  | 303 nM | 254 nM |  | 
13 | [dL]LRWSRKLPCVSK(DOTA) (also: DOTA complexed with natLu, natLu and 177Lu complexes are written as one molecule; they differ only in the isotope; also called ^177Lu-6; Lu complex of ligand-6 (monomer); source: synthetic peptide, complexed with natLuCl3, monomer isolated by semipreparative RP-HPLC; ^177Lu form labelled with 177LuCl3 in the presence of DTT) [^natLu-6] |  |  |  | 465 nM | 1010 nM |  | ~1 % of applied activity
14 | [dL]LRWSRKLPCVSK(DOTA) (as ligand-1 with isoleucine 1 substituted by D-leucine; source: synthetic peptide (Fmoc solid phase synthesis, RP-HPLC purified)) [ligand-6] |  |  |  | 428 nM | 747 nM |  | 
15 | ILRWSRKLPSVSK(DOTA) (also: natLu complexed by DOTA, natLu and 177Lu complexes are written as one molecule; they differ only in the isotope; also called ^177Lu-2; Lu complex of ligand-2; source: synthetic peptide, complexed with natLuCl3; ^177Lu form labelled with 177LuCl3) [^natLu-2] |  |  |  | 49 nM |  | 65 nM | ~1 % of applied activity
16 | ILRWSRKLPSVSK(DOTA) (as ligand-1 with serine instead of cysteine at position 10; source: synthetic peptide (Fmoc solid phase synthesis, RP-HPLC purified)) [ligand-2] |  |  |  | 172 nM | 258 nM |  | 
17 | ILRWSRK(DOTA)-NH2 (N-terminus assumed; SMILES CC[C@H](C)[C@H](N)C(=O)N[C@@H](CC(C)C)C(=O)N[C@@H](CCCNC(=N)N)C(=O)N[C@@H](Cc1c[nH]c2ccccc12)C(=O)N[C@@H](CO)C(=O)N[C@@H](CCCNC(=N)N)C(=O)N[C@@H](CCCCNC(=O)CN1CCN(CC(=O)O)CCN(CC(=O)O)CCN(CC(=O)O)CC1)C(N)=O, shortest truncated JM#21 derivative; DOTA on its own K7; source: synthetic peptide (Fmoc solid phase synthesis, RP-HPLC purified)) [ligand-5] |  |  |  | 120 nM | 424 nM |  | 
18 | ILRWSRKLPCVS (activity-optimised, truncated 12-mer derivative of EPI-X4 (rational design); source: synthetic peptide) [EPI-X4 JM#21] |  |  |  | 136 nM | 183 nM |  | 
19 | ILRWSRKLPK(DOTA)-NH2 (N-terminus assumed; SMILES CC[C@H](C)[C@H](N)C(=O)N[C@@H](CC(C)C)C(=O)N[C@@H](CCCNC(=N)N)C(=O)N[C@@H](Cc1c[nH]c2ccccc12)C(=O)N[C@@H](CO)C(=O)N[C@@H](CCCNC(=N)N)C(=O)N[C@@H](CCCCN)C(=O)N[C@@H](CC(C)C)C(=O)N1CCC[C@H]1C(=O)N[C@@H](CCCCNC(=O)CN1CCN(CC(=O)O)CCN(CC(=O)O)CCN(CC(=O)O)CC1)C(N)=O, truncated JM#21 derivative with added C-terminal K(DOTA)-NH2; source: synthetic peptide (Fmoc solid phase synthesis, RP-HPLC purified)) [ligand-3] |  |  |  | 45 nM | 98 nM |  | 
20 | ILRWSRKLPCVSK(DOTA) (also: natLu complexed by DOTA, natLu and 177Lu complexes are written as one molecule; they differ only in the isotope; also called ^177Lu-1; Lu complex of ligand-1 (monomer); source: synthetic peptide, complexed with natLuCl3, monomer isolated by semipreparative RP-HPLC; ^177Lu form labelled with 177LuCl3 in the presence of DTT) [^natLu-1] |  |  |  | 208 nM | 278 nM | 15 nM | ~1 % of applied activity
